The results in this text go back to paper PMC5764952 (2018).

The chains are these.
B1: Untagged murine saposin A (SapA) [mouse] / His6-tagged murine β-galactocerebrosidase (GALC) [modified: glycosylated; glycosylated] [mouse] (parent)
chain 1: MGKSLPCDICKTVVTEAGNLLKDNATQEEILHYLEKTCEWIHDSSLSASCKEVVDSYLPVILDMIKGEMSNPGEVCSALNLCQSLQE
chain 2: YVLDDSDGLGREFDGIGAVSGGGATSRLLVNYPEPYRSEILDYLFKPNFGASLHILKVEIGGDGQTTDGTEPSHMHYELDENYFRGYEWWLMKEAKKRNPDIILMGLPWSFPGWLGKGFSWPYVNLQLTAYYVVRWILGAKHYHDLDIDYIGIWNERPFDANYIKELRKMLDYQGLQRVRIIASDNLWEPISSSLLLDQELWKVVDVIGAHYPGTYTVWNAKMSGKKLWSSEDFSTINSNVGAGCWSRILNQNYINGNMTSTIAWNLVASYYEELPYGRSGLMTAQEPWSGHYVVASPIWVSAHTTQFTQPGWYYLKTVGHLEKGGSYVALTDGLGNLTIIIETMSHQHSMCIRPYLPYYNVSHQLATFTLKGSLREIQELQVWYTKLGTPQQRLHFKQLDTLWLLDGSGSFTLELEEDEIFTLTTLTTGRKGSYPPPPSSKPFPTNYKDDFNVEYPLFSEAPNFADQTGVFEYYMNNEDREHRFTLRQVLNQRPITWAADASSTISVIGDHHWTNMTVQCDVYIETPRSGGVFIAGRVNKGGILIRSATGVFFWIFANGSYRVTADLGGWITYASGHADVTAKRWYTLTLGIKGYFAFGMLNGTILWKNVRVKYPGHGWAAIGTHTFEFAQFDNFRVEAAR

This experiment covers variants of B1. The experiment is described as follows: pull-down (immobilised GALC, Coomassie SDS-PAGE, quantified). To be noted: with His6-tagged murine β-galactocerebrosidase (GALC) [modified: glycosylated, in the presence of Tween-20, n = 3, read off a plot.
Consider chain 1 N24Y, for which the ratio to parent amounted to 1.3.
